From patent US8367390B2, “Galactanase variants” (Novozymes A/S, priority 2002, dated 2013)

Columns and labels:
Assay type in all cases: biochemical
[1] = pH profile of galactanase activity on lupin AZCL-galactan; settings: 15 min at 37° C., A590, unit assumed
Protocol: The pH profiles of the purified variants described above were established as follows: Galactanase activity at various pH was measured by mixing 500 μl 4 mg/ml lupin AZCL-galactan (Megazyme, Australia) in water with 500 μl buffer (50 mM sodium acetate, 50 mM potassium dihydrogenphosphate, 50 mM boric acid, 1 mM CaCl2, 0.01% Triton X-100 adjusted to pH 2.5, 3.5, 4.5, 5.5, 6.5, 7.5, 8.5 or 9.5 with HCl/NaOH) and 25 μl purified enzyme diluted to about 0.5-2 μg/ml in water. The mixture was incubated 15 min at 37° C., insoluble material was removed by centrifugation, and absorbance in the supernatant was measured at 590 nm.

[2] = Activity on galactotriose (Gal3); settings: up to 24 hours; buffer, pH and temperature per enzyme
Protocol: The activity on the galacto-oligosaccharide substrates prepared as described above and on the commercially available galactobiose (Gal2, Megazyme) was studied for the four purified galactanases HIGAL, MTGAL, AAGAL and BLGAL. The buffers and temperatures used were: 25 mM sodium acetate, 0.5 mM CaCl2, 0.005% Triton X-100, pH 6.5 at 37° C. for HIGAL and MTGAL, 50 mM sodium acetate, 1 mM CaCl2, pH 4 at 30° C. for AAGAL and 50 mM Mes, 1 mM CaCl2, pH 6.5 at 30° C. for BLGAL. Enzyme concentrations used were 0.8 μg/ml for HIGAL, 0.2 microgram/ml for MTGAL, and 10 micrograms/ml for AAGAL and BLGAL. With HIGAL and MTGAL substrate concentrations were all 0.25 mg/ml, whereas 0.34 mg/ml Gal2, 0.050 mg/ml Gal3 and 0.067 mg/ml Gal4 were used for AAGAL and BLGAL. Enzyme activity in samples withdrawn after various incubation times was inactivated by heating to 95° C. for 10 min. Compositions of reaction products were analysed using HPAE-PAD (Dionex) applying a PA-100 column and a linear gradient of sodium acetate (0-0.18 M) in 0.15 M NaOH. Response factors of the individual carbohydrates were estimated from reference runs with MeGal3, MeGal4, Gal, Gal2, Gal3 and Gal4. Selected results are shown in Tables 2-8 below (the figures indicating weight percentage of glactooligosaccharides).

[3] = Activity on lactose, products by HPAE-PAD; settings: lactose 100 mg/ml, 50° C.
[4] = Activity on lactose, products by HPAE-PAD; settings: lactose 100 mg/ml, 50° C., pH 6.45
Protocol: HIGAL (60 micrograms/ml) and MTGAL (750 μg/ml) were incubated at 50° C. with lactose (Lac) (100 mg/ml) at pH 4.8 (25 mM sodium citrate), 6.45 (25 mM sodium acetate, 0.5 mM CaCl2, 0.005% Triton X-100) and 8.6 (50 mM Tris, 0.01% Brij 35). 20 microliters samples were withdrawn after 2, 23 and 120 hours, 980 water added and enzyme inactivated by heating to 95° C. for 10 min. After a further 20 time dilution with water, samples were analysed using HPAE-PAD (Dionex LC-500 system, PA-100 column, 0-3 min: 150 mM NaOH, 3-19 min: linear gradient 0-0.18 M sodium acetate in 150 mM NaOH). Response factors for the individual peaks were estimated from standards of Gal, Glu, Lac, Gal2, Gal3 and Gal4.
In Tables 12 and 13 weight fractions of the analysed products with MTGAL at pH […] and 6.45 are given. The figures indicate weight % of the products resulting from the incubation. The term DP3 indicates transglycosylation product consisting of three sugar units, and the term DP4+ transglycosylation products consisting of four or more sugar units. Unfortunately, the analysis method used was not able to separate Glu and Gal.

[5] = HPAE-PAD check of transglycosylation products from ONPG; settings: HIGAL 110 μg/ml; ONPG 5 mg/ml with and without Gal2 or Gal3 0.05 mg/ml; room temperature, pH 6.5
Protocol: Using HPAE-PAD chromatography (Dionex LC-500 System, PA-100 column, linear gradient of 0-0.6 M sodium acetate in 100 mM NaOH), the production of larger oligosaccharides from transglycosylation upon incubation of HIGAL (110 μg/ml) at room temperature (0.5 to 14 min followed by heat inactivation for 10 min at 95° C. resulting in A405: 0.15-0.67) in 50 mM sodium acetate, 1 mM CaCl2, 0.01% Triton X-100, pH 6.5 with ONPG (5 mg/ml) with and without Gal2 (0.05 mg/ml) or Gal3 (0.05 mg/ml) as acceptor was verified.

[6] = pH 4.5, incubation time 2 hours
[7] = pH 4.5, incubation time 23 hours
[8] = pH 4.5, incubation time 120 hours
[9] = pH 6.45, incubation time 120 hours

B1: MTGAL: GH Family 53 galactanase from Myceliophthora thermophila, SEQ ID NO: 1 (wild type parent) (protein, listed as Myceliophthora thermophila)
chain: ALTYRGVDWSSVVVEERAGVSYKNTNGNAQPLENILAANGVNTVRQRVWVNPADGNYNLDYNIAIAKRAKAAGLGVYIDFHYSDTWADPAHQTMPAGWPSDIDNLSWKLYNYTLDAANKLQNAGIQPTIVSIGNEIRAGLLWPTGRTENWANIARLLHSAAWGIKDSSLSPKPKIMIHLDNGWDWGTQNWWYTNVLKQGTLELSDFDMMGVSFYPFYSSSATLSALKSSLDNMAKTWNKEIAVVETNWPISCPNPRYSFPSDVKNIPFSPEGQTTFITNVANIVSSVSRGVGLFYWEPAWIHNANLGSSCADNTMFSQSGQALSSLSVFQRI
modifications: mat_peptide (1)..()
Galactanase activity at pH 2.5 ([1]; pH 2.5): 0%
Galactanase activity at pH 3.5 ([1]; pH 3.5): 12%
Galactanase activity at pH 4.5 ([1]; pH 4.5): 41%
Galactanase activity at pH 5.5 ([1]; pH 5.5): 63%
Galactanase activity at pH 6.5 ([1]; pH 6.5): 90%
Galactanase activity at pH 7.5 ([1]; pH 7.5): 100%
Galactanase activity at pH 8.5 ([1]; pH 8.5): 54%
Galactanase activity at pH 9.5 ([1]; pH 9.5): 7%
Activity on Gal3, products [2]: degraded Gal3 to Gal2 and Gal
DP3 in products [3, 6]: 2.0 weight %
DP4+ in products [3, 6]: 0.5 weight %
Glu/Gal in products [3, 6]: 1.4 weight %
Lac/Gal2 in products [3, 6]: 96.0 weight %
DP3 in products [3, 7]: 7.0 weight %
DP4+ in products [3, 7]: 1.8 weight %
Glu/Gal in products [3, 7]: 12.5 weight %
Lac/Gal2 in products [3, 7]: 78.7 weight %
DP3 in products [3, 8]: 8.9 weight %
DP4+ in products [3, 8]: 1.1 weight %
Glu/Gal in products [3, 8]: 38.8 weight %
Lac/Gal2 in products [3, 8]: 51.2 weight %
DP4+ in products ([3]; pH 6.45, incubation time 2 hours): 1.9 weight %
DP4+ in products ([3]; pH 6.45, incubation time 23 hours): 1.9 weight %
DP3 in products [3, 9]: 11.7 weight %
DP4+ in products [3, 9]: 4.7 weight %
Lac/Gal2 in products [3, 9]: 62.6 weight %
Conversion of Lac ([3]; pH 4.5 and 6.5): significant conversion of Lac
DP3 in products ([4]; incubation time 2 hours): 1.4 weight %
Glu/Gal in products ([4]; incubation time 2 hours): 1.0 weight %
Lac/Gal2 in products ([4]; incubation time 2 hours): 95.7 weight %
DP3 in products ([4]; incubation time 23 hours): 6.3 weight %
Glu/Gal in products ([4]; incubation time 23 hours): 6.5 weight %
Lac/Gal2 in products ([4]; incubation time 23 hours): 85.3 weight %
Glu/Gal in products ([4]; incubation time 120 hours): 21.0 weight %

B2: HIGAL: GH Family 53 galactanase from Humicola insolens, SEQ ID NO: 2 (wild type parent) (protein, listed as Humicola insolens)
chain: ALQYKGVDWSSVMVEERAGVRYKNVNGQEKPLEYILAENGVNMVRQRVWVNPWDGNYNLDYNIQLARRAKAAGLGLYINFHYSDTWADPAHQTTPAGWPSDINNLAWKLYNYTLDSMNRFADAGIQVDIVSIGNEITQGLLWPLGKTNNWYNIARLLHSAAWGVKDSRLNPKPKIMVHLDNGWNWDTQNWWYTNVLSQGPFEMSDFDMMGVSFYPFYSASATLDSLRRSLNNMVSRWGKEVAVVETNWPTSCPYPRYQFPADVRNVPFSAAGQTQYIQSVANVVSSVSKGVGLFYWEPAWIHNANLGSSCADNTMFTPSGQALSSLSVFHRI
modifications: mat_peptide (1)..()
Production of larger oligosaccharides from transglycosylation [5]: verified
Activity on Gal3, products [2]: degraded Gal3 to Gal2 and Gal
